Source: US20220193111A1, “Method of Treatment” (The University Court of the University of Edinburgh, priority 2018, published 2022)

How the values were obtained:
HUVECs = assay: Immunofluorescence of transfected HUVECs; format: cell-based, human; settings: anti-miR, 48 hrs
Description: Cells were fixed using 4% paraformaldehyde in PBS at room temperature for 15 min. For intracellular staining, fixed cells were permeabilized using 0.5% Triton X-100 in PBS (Sigma-Aldrich) or 0.1% Saponin in PBS at room temperature for 10 min. The blocking of […] antibody activity was performed using 3% bovine serum albumin (BSA) in PBS for 1 hour. Samples were incubated with antibodies to CD31 (Abcam, ab28364, 1:50), VE-cadherin (Abcam, ab33168, 1:100), FSP-1 (Abcam, ab41532, 1:200) and COL1A1 (Abcam, ab138492, 1:100) in PBS containing 1% BSA at 4° C. overnight. Samples were washed extensively with PBS and incubated with Alexa-Fluor-488-conjugated antibodies to rabbit IgG (Life Technologies, Carlsbad, Calif., #A11070) and Alexa-Fluor-594-conjugated antibodies to rabbit IgG (Life Technologies, Carlsbad, Calif., #A11072) in DAPI with PBS with 1% BSA at room temperature for 1 h. Image analysis was performed on Zeiss LSM 780 confocal microscope.

[1] = tested on: HUVECs treated with TNF-α/IL-1β; assay: Rescue of TNF-α/IL-1β-induced EndMT in HUVECs; format: cell-based, human; settings: mimic-transfected HUVECs, TNF-α/IL-1β 6 days
Description: Human umbilical vein ECs (HUVECs; Lonza) were grown in EGM-2 (comprising EBM-2 with growth factors and other supplements) with 2% Foetal Bovine Serum. Confluent HUVECs were treated with 10 ng/ml TNF-α, IL-1β, TGFβ2 (PeproTech); medium and cytokines were changed every two days. SB431542 (Tocris) has been used at the dose of 10 μM. HEK293T cells (ATCC®, CRL-11268) were cultured in D-MEM with 10% FBS (Life Technologies).
Total RNA was extracted using miReasy kit (Qiagen). Real-time quantification to measure miRNAs was performed with the TaqMan miRNA reverse transcription kit and miRNA assay (Life Technology) using Lightcycler 480 (Roche). miRNAs expression was normalized to the U6 […] (snRU6). For mRNA analysis, cDNA was amplified by quantitative real-time PCR (qPCR) and normalized to 18S ribosomal RNA. Each reaction was performed in triplicate. Quantification was performed by the 2^−ΔΔCt method^52. qPCR was used to measure the expression of miR-148b (miR-148b-3p Thermo Fisher Scientific, Cat. #4426961), snRU6 (ThermoFisher Scientific, Cat. #4331182), TGFβ2, SMAD2, CD31, VE-Cadherin, COL1A1, α-SMA, SLUG, VIM, SNAIL, TWIST, ZEB1/2 and 18S rRNA. Primers are pre-designed from Sigma (KiCgStart™ Primers).
Lipofectamine RNAiMAX (Thermo Fisher Scientific) was used to transfect HUVECs with miR-148b mimic, anti-miR-148b and mimic or anti-miR control (25 nM and […], respectively final concentration) or with siRNA targeting SMAD2 (20 nM final concentration), according to the manufacturer's instructions. jetPEI-HUVECs (Polyplus) was used to transfect HUVECs with DNA plasmids. The following functional assays were performed: BrdU incorporation assay using Cell Proliferation colorimetric assay (Roche); Matrigel assay with HUVECs was performed as previously described using BD Matrigel Basement Membrane Matrix (BD Biosciences)^53.
Proteins were extracted from cultured cells or muscles by using ice-cold buffer A (50 mM Hepes, 150 mM NaCl, 1 mM EDTA, 1 mM EGTA, 25 mM NaF, 5 mM NaPPi, 1%Triton, 1% NP40, 1 mM Na3VO4, 0.25% sodium deoxycholate, 0.5 mM Na-orthovanadate, 1 mM benzamidine, 0.1 mM phenylmethylsulfonyl fluoride). Protein concentration was determined using the Bio-Rad Protein Assay Reagent (Bio-Rad Laboratories, UK). Detection of proteins by Western blot analyses was done following separation of whole cell extracts (20 μg) on SDS-polyacrylamide gels. Proteins were transferred to nitrocellulose membranes and probed with the following antibodies: TGFβ2 (Abcam, ab36495, 1:1000), SMAD2 (SantaCruz Biotechnology, Santa Cruz, Calif., USA; #3102, 1:1000), p-SMAD2 (465/467) (Cell Signaling; #3108, 1:1000); CD31 (Abcam., 1:1000), VE-Cadherin (Abcam, ab33168, 1:1000), COL1A1 (Abcam, ab138492, 1:200), FSP-1 (5100A4; Abcam, ab41532, 1:1000), SLUG (Abcam, ab27568, 1:1000), β-actin (Abcam, ab16039, 1:4000), HDAC3 (GeneTex GTX113303, 1:1000) and GAPDH (GeneTex, GT239, 1:1000) (both used as loading control). For detection, the inventors used secondary antibodies conjugated to horseradish peroxidase which were rabbit anti-mouse (Abcam, ab97046, 1:5000) and goat anti-rabbit (Abcam, ab6721, 1:10000). Detection was developed by chemiluminescence reaction (ECL) (Immunoblot, Millipore, 23225).
Cells were fixed using 4% paraformaldehyde in PBS at room temperature for 15 min. For intracellular staining, fixed cells were permeabilized using 0.5% Triton X-100 in PBS (Sigma-Aldrich) or 0.1% Saponin in PBS at room temperature for 10 min. The blocking of […] antibody activity was performed using 3% bovine serum albumin (BSA) in PBS for 1 hour. Samples were incubated with antibodies to CD31 (Abcam, ab28364, 1:50), VE-cadherin (Abcam, ab33168, 1:100), FSP-1 (Abcam, ab41532, 1:200) and COL1A1 (Abcam, ab138492, 1:100) in PBS containing 1% BSA at 4° C. overnight. […]

anti-miR-148b: miR-148b inhibitor oligonucleotide; suitable inhibitor: hsa-miR-148b-3p miRCURY LNA inhibitor, CAAAGTTCTGTGATGCACTG (SEQ ID NO: 6) (commercial miRCURY LNA inhibitor, LNA positions not given here)
CD31 and VE-cadherin immunoreactivity (HUVECs): pronounced decrease
COL1A1 and FSP-1 immunoreactivity (HUVECs): increase
rounded/cobblestone morphology (HUVECs): lost

B1: miR-148b mimic: miR-148b mimic oligonucleotide; in a particular embodiment has SEQ ID NO: 1, the human precursor miR-148b sequence (nucleic acid)
chain: CAAGCACGAUUAGCAUUUGAGGUGAAGUUCUGUUAUACACUCAGGCUGUGGCUCUCUGAAAGUCAGUGCAUCACAGAACUUUGUCUCGAAAGCUUUCUA
modifications: listed as RNA, chemistry not given here
CD31 and VE-cadherin, mRNA and protein levels [1]: rescued
COL1A1 and FSP-1 staining (immunostaining) [1]: decrease
TGFB2, SMAD2, SLUG, FSP-1, COL1A1 (mRNA and protein) [1]: decreased
endothelial markers CD31 and VE-cadherin on ECs membrane (immunostaining) [1]: maintenance
phosphorylation of SMAD2 [1]: reduced
